# Results as given in patent US20090131309A1, “ICA512 COUPLES INSULIN SECRETION AND GENE EXPRESSION IN BETA-CELLS” (Technische Universität Dresden Medizinizche Fakultät Carl …, priority 2004, published 2009).
# T1: STAT5b (Rattus norvegicus, UniProt P52632)
# T1 construct: endogenous in cells; host or cells: INS-1 cells transiently transfected with ICA512-CCF-GFP
# T1 sequence (P52632 1-786): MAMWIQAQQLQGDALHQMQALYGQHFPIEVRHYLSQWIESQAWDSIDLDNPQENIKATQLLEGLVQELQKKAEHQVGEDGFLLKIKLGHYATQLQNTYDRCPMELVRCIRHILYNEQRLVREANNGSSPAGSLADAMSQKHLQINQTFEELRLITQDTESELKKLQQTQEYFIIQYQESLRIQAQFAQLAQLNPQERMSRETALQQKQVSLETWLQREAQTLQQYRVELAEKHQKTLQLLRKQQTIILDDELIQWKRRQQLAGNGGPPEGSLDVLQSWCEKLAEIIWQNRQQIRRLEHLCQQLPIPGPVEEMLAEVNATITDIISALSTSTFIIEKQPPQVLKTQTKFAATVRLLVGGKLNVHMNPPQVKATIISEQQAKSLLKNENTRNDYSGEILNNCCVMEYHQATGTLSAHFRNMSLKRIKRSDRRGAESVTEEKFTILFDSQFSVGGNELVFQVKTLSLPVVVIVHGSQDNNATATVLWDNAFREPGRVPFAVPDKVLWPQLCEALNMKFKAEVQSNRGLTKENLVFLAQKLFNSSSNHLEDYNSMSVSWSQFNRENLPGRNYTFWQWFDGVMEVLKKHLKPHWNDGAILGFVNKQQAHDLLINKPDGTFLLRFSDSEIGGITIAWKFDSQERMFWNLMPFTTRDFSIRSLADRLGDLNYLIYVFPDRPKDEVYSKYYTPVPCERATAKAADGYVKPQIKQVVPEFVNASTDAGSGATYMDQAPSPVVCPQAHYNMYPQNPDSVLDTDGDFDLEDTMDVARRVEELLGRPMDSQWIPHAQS
# B1: ICA512-CCF-GFP: ICA512 cytoplasmic fragment generated by μ-calpain, residues 659-979, fused at its C-terminus with GFP (protein)
# chain: SQFSDAAQASPSSHSSTPSWCEEPAQANMDISTGHMILAYMEDHLRNRDRLAKEWQALCAYQAEPNTCATAQGEGNIKKNRHPDFLPYDHARIKLKVESSPSRSDYINASPIIEHDPRMPAYIATQGPLSHTIADFWQMVWESGCTVIVMLTPLVEDGVKQCDRYWPDEGASLYHVYEVNLVSEHIWCEDFLVRSFYLKNVQTQETRTLTQFHFLSWPAEGTPASTRPLLDFRRKVNKCYRGRSCPIIVHCSDGAGRTGTYILIDMVLNRMAKGVKEIDIAATLEHVRDQRPGLVRSKDQFEFALTAVAEEVNAILKALPQ
# modifications: left off: large carriers
# notes: ICA512 cytoplasmic fragment generated by μ-calpain, residues 659-979, fused at its C-terminus with GFP
# Experiments:
# [1] = tested on: Insulin mRNA; assay: Insulin mRNA levels by real-time PCR in INS-1 cells; format: cell-based, rat
# Method: Time-course stimulation of INS-1 cells. INS-1 ceils were incubated for 1 hr. in resting buffer (2.8 mM glucose and 5 mM KCl), then for 6 hrs. in resting or stimulating buffer, with or without 40 μM calpeptin, and then again in resting buffer for up to 24 hrs. Total RNA for real-time PCR was collected at time 0, 2 and 6 hrs. during stimulation and at 2, 6, 12 and 24 hrs. during the following resting period.
# Real-time PCR. Total RNA from INS-1 cells was isolated with Trizol (Invitrogen, Karlsruhe, Germany) according to the manufacturer's protocol. 1 μg of total RNA was used for the reverse transcriptase reaction, with 2 μM specific antisense primers for […] and insulin, as described (31). mRNA expression was measured by quantitative real-time PCR using the Brilliant SYBR Green QPCR (Stratagene, La Jolla, Calif.) with an Mx4000 Multiplex Quantitative Real Time PCR System (Stratagene).
# [2] = tested on: pro-ICA512; assay: Immunoblot for pro-ICA512 and ICA512-TMF in INS-1 cells; format: cell-based, rat
# Method: (§1) Culture of INS-1 cells. INS-1 cells were grown as described^27. In some instances cells were pre-incubated for 1 hour in resting buffer (0 mM glucose, 5 mM KCl) and then for 2 or 6 hours in resting or stimulating (25 mM glucose, 55 mM KCl) buffers as described^7. Calpeptin (Calbiochem) was added in the last 15 minutes of the pre-incubation, and then for the entire following period before cells were harvested. Cells were stimulated with 20 nM human growth hormone (hGH) for 20 minutes following 18 hours incubation in low serum medium (LSM) containing RPMI-1640, 11 mM glucose, 0.5% FBS 25 mM HEPES, 1% penicillin-streptomycin and 0.05 mM β-mercaptoethanol. After washing, cells were either harvested or incubated in LSM for 6 additional hours. For immunoprecipitation cells were collected 1 hour after stimulation with hGH.
# Cell extracts and western blotting. INS-1 cells and pancreatic islets were harvested at 4° C. in RIPA buffer [50 mM Tris-HCl at pH 8.0, 150 mM NaCl, 1% NP-40, 0.1% SDS, 0.5% sodium deoxycholate, and 1× protease inhibitor cocktail (Sigma)] to obtain total extracts. Insoluble material was removed by centrifugation. Cytosolic and nuclear extracts were prepared using the NE-PER Nuclear and Cytoplasmic Extraction Reagents (Pierce). Proteins were separated by 8-10% SDS-PAGE and immunoblotted with the following antibodies: mouse monoclonals anti-ICA512^7, anti-STAT5 (Santa Cruz), anti-γ-tubulin and anti-HA (Sigma); rabbit anti-PY-STAT5 and anti-STAT3 (Cell Signaling); affinity purified goat anti-GFP IgGs. Chemiluminescence was developed using the Supersignal West Pico or Femto kits (Pierce) and detected with a LAS 3000 Bioimaging System (Fuji). Protein signals were quantified with the Image Gauge v3.45 software (Fuji). Half the amount of nuclear extract proteins were immunoblotted relative to total and cytosolic extract proteins.
# [3] = tested on: ICA512 mRNA; assay: ICA512 mRNA by real-time PCR in INS-1 cells; format: cell-based, rat; conditions: transfected INS-1 cells vs cells expressing GFP alone
# Method: PCR and real-time PCR. Cytosolic mRNA was isolated with the Oligotex Direct mRNA kit (Qiagen) according to the manufacturer's protocol. PolyA^+-enriched RNA was reverse transcribed with specific antisense primers for ICA512 and β-actin as described^8. Amplification of a 200 bp fragment flanking the GLE in the rat insulin1 (rINS1) gene promoter by PCR and real-time PCR was performed with the following primers: sense [NT], antisense [NT]. Amplification of ICA512 and β-actin was performed as described^16.
# [4] = tested on: INS-1 cells; assay: Uridine incorporation in INS-1 cells; format: cell-based, rat; conditions: relative to GFP-transfected INS-1 cells
# [5] = tested on: STAT5; assay: Firefly luciferase reporter assay for STAT activity (8GLE-CAS-FL) in INS-1 cells; format: cell-based, rat; conditions: co-transfected INS-1 cells, hGH stimulation
# Method: Firefly luciferase assays. INS-1 cells were co-transfected with 8GLE-CAS-FL and one or two of the following plasmids: pEGFP, ICA512-CCF-GFP, ICA512-CCF(K/A^754)-GFP and PIASy-GFP. Two days after transfection, cells were incubated in low serum medium for 18 hrs, then stimulated with 20 nM hGH for 20 minutes, and finally left in resting buffer for 6 additional hours. Cells were harvested in 500 μl lysis reagent for luciferase assays (Promega) and 10 μl were used for measurement of luciferase activity in a Berthold luminometer. Each sample was performed in triplicate and the data represent the mean of at least 2 independent experiments.
# [6] = tested on: STAT5b; assay: Nuclear levels of STAT5b, PY-STAT5 and STAT3 in INS-1 cells (immunoblot); format: cell-based, rat
# Method: as §1
# Cell extracts and western blotting. INS-1 cells and pancreatic islets were harvested at 4° C. in RIPA buffer [50 mM Tris-HCl at pH 8.0, 150 mM NaCl, 1% NP-40, 0.1% SDS, 0.5% sodium deoxycholate, and 1× protease inhibitor cocktail (Sigma)] to obtain total extracts. Insoluble material was removed by centrifugation. […] Chemiluminescence was developed using the Supersignal West Pico or Femto kits (Pierce) and detected with a LAS 3000 Bioimaging System (Fuji). Protein signals were quantified with the Image Gauge v3.45 software (Fuji). […]
# [7] = tested on: GLE of rat insulin 1; assay: EMSA with biotinylated GLE oligonucleotide of rat insulin 1 promoter; format: binding; conditions: nuclear extracts of INS-1 cells expressing increasing amount of construct
# [8] = biological target: T1, STAT5b; assay: Co-immunoprecipitation with anti-GFP antibodies from INS-1 extracts; format: binding; conditions: hGH-stimulated INS-1 cells
# Method: Immunoprecipitation. INS-1 cells were transiently transfected With one or more of the following constructs: GFP, ICA512-CCF-GFP, ICA512-CCF(K/A^754)-GFP, SUMO-1 and HA-SUMO-1. Anti-GFP IgGs were used for immunoprecipitations from total or cytosolic extracts. Immunoprecipitates were immunoblotted with anti-STAT5b, anti-PY-STAT5, anti-GFP or anti-HA antibodies. 600 μg and 200 μg protein were used as starting material for immunopreciptation of sumoylated ICA512 and STAT5, respectively.
# [9] = tested on: GLE of the rat insulin I gene promoter; assay: Chromatin immunoprecipitation, GLE of rat insulin I gene promoter; format: binding; conditions: stable INS-1 cells, anti-GFP antibodies vs control IgG
molecule,measurement,setting,value
B1,insulin mRNA levels vs amount of construct expressed,"[1]; 0.5-4 μg construct, 4 days in culture with 11 mM glucose",correlation between the increased expression of ICA512 (659-979)-GFP and the enhancement of insulin mRNA levels
same,Insulin mRNA increase,"[1]; resting INS-1 cells transiently transfected, vs electroporated cells",93%
same,further increase of insulin mRNA by stimulation,[1]; stimulated transfected INS-1 cells,60%
same,ICA512-TMF levels,[2]; transfected INS-1 cells vs GFP,also increased
same,pro-ICA512 increase,[2]; transfected INS-1 cells vs cells expressing GFP alone,40%
same,ICA512 mRNA increase,[3],81%
same,total incorporation of 3H-uridine,[4],270%
same,STAT5 transcription activity (8GLE-CAS-FL luciferase),[5],partially restored
same,STAT5b and STAT3 in the nucleus,[6]; INS-1 cells transfected with increasing amount of construct,dose-dependent increase
same,Nuclear STAT5b and nuclear PY-STAT5,"[6]; hGH 20 nM 20 min, ICA512-CCF-GFP vs GFP cells, AD/DA mutant vs ICA512-CCF-GFP cells",clearly increased
same,"binding of a factor, conceivably STAT5b, to the GLE oligonucleotide",[7],positive correlation
same,co-immunoprecipitation of STAT5b and PY-STAT5,[8],co-immunoprecipitated
same,co-immunoprecipitation of GLE of the rat insulin I gene promoter,[9],co-immunoprecipitated with anti-GFP antibodies
